Columns and labels:
Test in all cases: holdup assay
Parameters in all cases: key: below the threshold = too weak to quantify, mostly under pKd 3.1 to 4
[1] = biological target: AHNAK1, Q09666
[2] = biological target: T1, ARHGAP21, Q5T5U3
T1 sequence (Q5T5U3 45-169, limits assumed, looked up): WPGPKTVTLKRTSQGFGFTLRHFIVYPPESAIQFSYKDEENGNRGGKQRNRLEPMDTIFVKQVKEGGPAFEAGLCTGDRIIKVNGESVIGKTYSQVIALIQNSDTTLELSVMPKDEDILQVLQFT

[3] = biological target: T2, CARD11, Q9BXL7
T2 sequence (Q9BXL7 662-765, limits assumed, looked up): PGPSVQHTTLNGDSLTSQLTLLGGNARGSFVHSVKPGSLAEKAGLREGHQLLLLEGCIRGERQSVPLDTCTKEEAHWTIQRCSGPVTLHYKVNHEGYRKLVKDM

[4] = biological target: GRASP, Q7Z6J2
[5] = biological target: GRID2IP_1, A4D2P6
[6] = biological target: T3, GRIP1_5, Q9Y3R0
T3 sequence (Q9Y3R0 568-668, limits assumed, looked up): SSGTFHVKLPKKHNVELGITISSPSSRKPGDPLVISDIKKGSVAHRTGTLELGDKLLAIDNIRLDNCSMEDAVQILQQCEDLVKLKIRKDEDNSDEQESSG

[7] = biological target: T4, HTRA3, P83110
T4 sequence (P83110 354-453, limits assumed, looked up): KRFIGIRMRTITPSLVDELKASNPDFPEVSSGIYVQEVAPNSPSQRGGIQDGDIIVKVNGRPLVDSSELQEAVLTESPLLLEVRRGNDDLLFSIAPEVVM

[8] = biological target: IL16_4, Q14005
[9] = biological target: Inadl_1, Q8NI35
[10] = biological target: Inadl_9, Q8NI35
[11] = biological target: T5, LIN7A, O14910
T5 sequence (O14910 103-200, limits assumed, looked up): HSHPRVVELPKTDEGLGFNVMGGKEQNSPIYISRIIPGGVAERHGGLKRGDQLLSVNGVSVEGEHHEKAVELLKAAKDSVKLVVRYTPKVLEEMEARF

[12] = biological target: T6, LIN7B, Q9HAP6
T6 sequence (Q9HAP6 88-185, limits assumed, looked up): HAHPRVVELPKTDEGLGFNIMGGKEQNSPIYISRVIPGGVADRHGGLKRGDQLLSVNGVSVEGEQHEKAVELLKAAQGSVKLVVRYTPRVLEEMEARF

[13] = biological target: T7, LNX2_3, Q8N448
T7 sequence (Q8N448 463-564, limits assumed, looked up): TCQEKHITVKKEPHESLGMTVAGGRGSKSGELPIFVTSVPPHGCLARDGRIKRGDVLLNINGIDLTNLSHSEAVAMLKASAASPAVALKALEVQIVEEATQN

[14] = biological target: T8, LRRC7, Q96NW7
T8 sequence (Q96NW7 1440-1537, limits assumed, looked up): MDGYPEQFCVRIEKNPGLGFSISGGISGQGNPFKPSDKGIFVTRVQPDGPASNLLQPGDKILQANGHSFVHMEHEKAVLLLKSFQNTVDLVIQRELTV

[15] = biological target: MAGI1_1, Q96QZ7
[16] = biological target: MAGI2_6, Q86UL8
[17] = biological target: T9, MPDZ_5, O75970
T9 sequence (O75970 695-796, limits assumed, looked up): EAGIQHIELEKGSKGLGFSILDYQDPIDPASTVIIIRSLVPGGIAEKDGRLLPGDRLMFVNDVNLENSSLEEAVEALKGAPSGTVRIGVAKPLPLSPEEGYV

[18] = biological target: T10, NHERF3_4, Q5T2W1
T10 sequence (Q5T2W1 373-468, limits assumed, looked up): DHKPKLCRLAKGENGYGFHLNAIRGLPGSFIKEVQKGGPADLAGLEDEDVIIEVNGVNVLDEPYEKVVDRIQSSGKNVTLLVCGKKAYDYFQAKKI

[19] = biological target: PDZRN4_1, Q6ZMN7
[20] = biological target: PICK1, Q9NRD5
[21] = biological target: T11, SNTB1, Q13884
T11 sequence (Q13884 107-205, limits assumed, looked up): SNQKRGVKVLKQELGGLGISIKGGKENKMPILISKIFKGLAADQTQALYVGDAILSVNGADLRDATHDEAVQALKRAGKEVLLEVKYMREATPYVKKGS

[22] = biological target: T12, SNTG1, Q9NSN8
T12 sequence (Q9NSN8 52-150, limits assumed, looked up): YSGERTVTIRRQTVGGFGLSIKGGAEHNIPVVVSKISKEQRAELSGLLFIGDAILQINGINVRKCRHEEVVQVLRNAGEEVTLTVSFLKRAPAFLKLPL

[23] = biological target: T13, TIAM2, Q8IVF5
T13 sequence (Q8IVF5 885-986, limits assumed, looked up): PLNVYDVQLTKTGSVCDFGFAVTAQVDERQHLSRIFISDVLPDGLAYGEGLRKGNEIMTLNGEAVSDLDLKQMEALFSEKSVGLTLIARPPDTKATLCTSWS

[24] = biological target: TJP2_1, Q9UDY2
[25] = plain residues with an end cap or a label only (N-terminal biotin on a linker: ttds)
[26] = plain residues with an end cap or a label only (N-terminal biotin on a linker: ahx)

MAGI1_1, Q96QZ7, sequence (Q96QZ7 1-106): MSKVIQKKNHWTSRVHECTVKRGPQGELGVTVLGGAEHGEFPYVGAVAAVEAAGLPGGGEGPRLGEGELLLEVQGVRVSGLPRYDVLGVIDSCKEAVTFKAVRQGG
TJP2_1, Q9UDY2, sequence (Q9UDY2 24-128): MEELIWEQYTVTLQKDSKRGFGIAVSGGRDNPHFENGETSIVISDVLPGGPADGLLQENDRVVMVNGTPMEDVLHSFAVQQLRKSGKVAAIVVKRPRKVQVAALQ
IL16_4, Q14005, sequence (Q14005 1229-1329): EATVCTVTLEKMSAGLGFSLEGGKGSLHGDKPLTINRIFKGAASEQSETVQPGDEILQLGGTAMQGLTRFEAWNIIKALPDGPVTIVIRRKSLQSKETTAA
GRID2IP_1, A4D2P6, sequence (A4D2P6 1-87): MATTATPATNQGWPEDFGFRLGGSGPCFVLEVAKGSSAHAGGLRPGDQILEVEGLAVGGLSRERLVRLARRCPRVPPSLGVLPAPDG
MAGI2_6, Q86UL8, sequence (Q86UL8 1141-1229): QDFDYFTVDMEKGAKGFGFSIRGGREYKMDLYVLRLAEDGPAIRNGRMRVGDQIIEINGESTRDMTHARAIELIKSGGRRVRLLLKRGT
Inadl_1, Q8NI35, sequence (Q8NI35 113-229): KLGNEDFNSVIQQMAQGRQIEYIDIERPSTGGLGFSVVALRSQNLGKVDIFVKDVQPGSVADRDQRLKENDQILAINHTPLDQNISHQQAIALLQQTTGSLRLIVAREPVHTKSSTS
PDZRN4_1, Q6ZMN7, sequence (Q6ZMN7 213-318): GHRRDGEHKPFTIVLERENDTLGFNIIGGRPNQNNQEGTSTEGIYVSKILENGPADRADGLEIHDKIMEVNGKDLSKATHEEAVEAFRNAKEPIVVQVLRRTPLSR
PICK1, Q9NRD5, sequence (Q9NRD5 17-115): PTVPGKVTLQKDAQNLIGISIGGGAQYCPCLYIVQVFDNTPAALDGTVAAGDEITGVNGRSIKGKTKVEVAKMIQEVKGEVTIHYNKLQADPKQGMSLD
Inadl_9, Q8NI35, sequence (Q8NI35 1530-1615): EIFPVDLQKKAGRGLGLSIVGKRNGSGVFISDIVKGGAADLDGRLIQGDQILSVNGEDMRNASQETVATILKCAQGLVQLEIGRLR
GRASP, Q7Z6J2, sequence (Q7Z6J2 96-193): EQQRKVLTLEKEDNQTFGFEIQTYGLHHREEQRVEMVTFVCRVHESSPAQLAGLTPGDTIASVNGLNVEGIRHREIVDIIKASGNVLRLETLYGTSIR
AHNAK1, Q09666, sequence (Q09666 4-100): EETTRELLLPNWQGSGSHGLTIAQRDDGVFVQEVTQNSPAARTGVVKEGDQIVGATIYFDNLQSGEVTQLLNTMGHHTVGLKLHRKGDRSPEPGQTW

B1: HPV73-E6, Q82005 (peptide)
chain: SGSRPSATVV
pKd [1, 25]: below the threshold | pKd [2, 25]: below the threshold | pKd [3, 25]: below the threshold | pKd [4, 25]: 3.8 | pKd [5, 25]: below the threshold | pKd [6, 25]: below the threshold | pKd [7, 25]: 3.7 | pKd [8, 25]: below the threshold | pKd [9, 25]: below the threshold | pKd [10, 25]: 3.59 | pKd [11, 25]: below the threshold | pKd [12, 25]: below the threshold | pKd [13, 25]: below the threshold | pKd [14, 25]: 3.54 | pKd [15, 25]: below the threshold | pKd [16, 25]: below the threshold | pKd [17, 25]: 3.53 | pKd [18, 25]: 3.6 | pKd [19, 25]: below the threshold | pKd [20, 25]: 3.63 | pKd [21, 25]: below the threshold | pKd [22, 25]: 3.6 | pKd [23, 25]: below the threshold | pKd [24, 25]: 3.77

B2: LNX2, Q8N448 (peptide)
chain: TVICWPGSLV
pKd [1, 26]: below the threshold | pKd [2, 26]: below the threshold | pKd [3, 26]: below the threshold | pKd [4, 26]: 4.59 | pKd [5, 26]: below the threshold | pKd [6, 26]: below the threshold | pKd [7, 26]: 3.85 | pKd [8, 26]: below the threshold | pKd [9, 26]: below the threshold | pKd [10, 26]: 3.99 | pKd [11, 26]: 4.35 | pKd [12, 26]: 4.46 | pKd [13, 26]: 3.65 | pKd [14, 26]: below the threshold | pKd [15, 26]: below the threshold | pKd [16, 26]: 3.56 | pKd [17, 26]: 4.03 | pKd [18, 26]: below the threshold | pKd [19, 26]: 4.23 | pKd [20, 26]: 3.75 | pKd [21, 26]: 4.1 | pKd [22, 26]: 3.7 | pKd [23, 26]: below the threshold | pKd [24, 26]: 3.9

B3: SLC2A1, P11166 (peptide)
chain: FHPLGADSQV
pKd [1, 25]: below the threshold | pKd [2, 25]: below the threshold | pKd [3, 25]: below the threshold | pKd [4, 25]: below the threshold | pKd [5, 25]: below the threshold | pKd [6, 25]: below the threshold | pKd [7, 25]: below the threshold | pKd [8, 25]: below the threshold | pKd [9, 25]: 3.49 | pKd [10, 25]: below the threshold | pKd [11, 25]: below the threshold | pKd [12, 25]: below the threshold | pKd [13, 25]: below the threshold | pKd [14, 25]: below the threshold | pKd [15, 25]: below the threshold | pKd [16, 25]: 3.99 | pKd [17, 25]: below the threshold | pKd [18, 25]: below the threshold | pKd [19, 25]: below the threshold | pKd [20, 25]: below the threshold | pKd [21, 25]: 3.64 | pKd [22, 25]: 3.88 | pKd [23, 25]: below the threshold | pKd [24, 25]: below the threshold

— article PMC9482650, “Quantitative fragmentomics allow affinity mapping of interactomes” (Nature Communications, 2022)
